Where “and” joins values, the source holds several entries; their conditions need not be identical. Equal entries are not always repeated.
T1: HPV45型衣壳蛋白L1病毒样颗粒(VLP)抗原 (HPV 45型) (UniProt P36741)
T1 sequence: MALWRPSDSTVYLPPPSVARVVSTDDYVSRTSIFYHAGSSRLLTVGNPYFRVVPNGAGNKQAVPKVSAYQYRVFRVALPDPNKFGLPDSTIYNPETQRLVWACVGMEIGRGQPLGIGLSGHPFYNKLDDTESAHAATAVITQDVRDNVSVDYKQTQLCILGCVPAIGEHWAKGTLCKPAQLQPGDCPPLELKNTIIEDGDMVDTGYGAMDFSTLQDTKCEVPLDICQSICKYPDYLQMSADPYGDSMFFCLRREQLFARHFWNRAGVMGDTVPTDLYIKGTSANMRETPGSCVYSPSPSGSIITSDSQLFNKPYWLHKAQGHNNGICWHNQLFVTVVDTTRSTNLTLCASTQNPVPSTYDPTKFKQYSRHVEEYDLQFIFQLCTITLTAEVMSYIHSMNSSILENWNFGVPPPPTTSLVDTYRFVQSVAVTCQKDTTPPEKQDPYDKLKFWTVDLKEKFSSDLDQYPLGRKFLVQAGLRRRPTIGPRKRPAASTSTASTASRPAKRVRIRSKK

B1: 杂交瘤细胞株7A5(CGMCC NO:45706)分泌的鼠源单克隆抗体 (antibody, V domains shown)
VH: QPGAELVKPGASVKLSCKASGYTFTSYWMHWVKQRPGQGLEWIGEINPSNGHTNYNEKFKSKATLTVDKSSSTAYMQLSSLTSEDSAVYYCAPCYGSSYDYYAMDYWGQGTSVTVSS
VL: DIVLTQSPASLAVSLGQRATISCRASQSVSTSSYSYMHWYQQKPGQPPKLLIKYASNLESGVPARFSGSGSGTDFTLNIHPVEEEDTATYYCQHSWEIPYTFGGGTKLEIK
notes: also called 鼠单抗7A5; 抗体7A5
B2: 杂交瘤细胞株11G1(CGMCC NO:45707)分泌的鼠源单克隆抗体 (antibody, V domains shown)
VH: QVQLQQPGAELVKPGASVKLSCKASGYTFTSYWMHWVKRRPGQGLEWIGEINPSNGLTNYNEKFKSKGTLTVDKSSSAAFMHLSSLTSEDSAVYYCARFHGSDLYAMDYWGQGTSVTVSS
VL: B1 VL
notes: also called 鼠单抗11G1; 抗体11G1

Experiments:
[1] = target: T1, HPV45型衣壳蛋白L1病毒样颗粒(VLP)抗原 (HPV 45型); test: sandwich ELISA, rabbit pAb R163 capture 1:500, mAb 1:20000; antigen 13.3 ug/ml, 2.5-fold series, step 7
[2] = target: T1, HPV45型衣壳蛋白L1病毒样颗粒(VLP)抗原 (HPV 45型); test: sandwich ELISA, rabbit pAb R163 capture 1:500, mAb 1:20000; antigen 13.3 ug/ml, 2.5-fold series, step 8
[3] = target: T1, HPV45型衣壳蛋白L1病毒样颗粒(VLP)抗原 (HPV 45型); test: sandwich ELISA, rabbit pAb R163 capture 1:500, mAb 1:20000; antigen 13.3 ug/ml, 2.5-fold series, step 9
[4] = target: T1, HPV45型衣壳蛋白L1病毒样颗粒(VLP)抗原 (HPV 45型); test: sandwich ELISA, rabbit pAb R163 capture 1:500, mAb 1:20000; antigen 13.3 ug/ml, 2.5-fold series, step 11

| Binder | OD [1] | OD [2] | OD [3] | OD [4] |
| --- | --- | --- | --- | --- |
| B1 | 0.379 OD and 0.358 OD | 0.175 OD and 0.189 OD | 0.106 OD | 0.066 OD and 0.056 OD |
| B2 | 0.218 OD and 0.206 OD | 0.115 OD and 0.108 OD |  | 0.05 OD and 0.046 OD |
